From patent US20190134153A1, “IMMUNOMODULATORY EFFECT OF INHALED KINASE INHIBITOR PEPTIDES IN LUNG” (MOERAE MATRIX, INC., priority 2017, published 2019) come the findings set out here.

Among the targets are CK1γ2(h) (Homo sapiens, UniProt P78368); EGFR(T790M)(h) (Homo sapiens, UniProt P00533, T790M); CK1γ1(h) (Homo sapiens, UniProt Q9HCP0); CLK2(h) (Homo sapiens, UniProt P49760); IGF-1R(h) (Homo sapiens, UniProt P08069); MAPK1(h) (Homo sapiens, UniProt P27361); Plk1(h) (Homo sapiens, UniProt P53350); Tie2(R849W)(h) (Homo sapiens, UniProt Q02763, R849W); MRCKα(h) (Homo sapiens, UniProt Q5VT25); PAK6(h) (Homo sapiens, UniProt Q9NQU5); Snk(h) (Homo sapiens, UniProt Q9NYY3); c-RAF(h) (Homo sapiens, UniProt P04049).

What all share (assay): Kinase Profiling Assay
Holding throughout (type): biochemical
Holding throughout (settings): 100 μM

Sequence of Tie2(R849W)(h) (Q02763 23-1124 R849W): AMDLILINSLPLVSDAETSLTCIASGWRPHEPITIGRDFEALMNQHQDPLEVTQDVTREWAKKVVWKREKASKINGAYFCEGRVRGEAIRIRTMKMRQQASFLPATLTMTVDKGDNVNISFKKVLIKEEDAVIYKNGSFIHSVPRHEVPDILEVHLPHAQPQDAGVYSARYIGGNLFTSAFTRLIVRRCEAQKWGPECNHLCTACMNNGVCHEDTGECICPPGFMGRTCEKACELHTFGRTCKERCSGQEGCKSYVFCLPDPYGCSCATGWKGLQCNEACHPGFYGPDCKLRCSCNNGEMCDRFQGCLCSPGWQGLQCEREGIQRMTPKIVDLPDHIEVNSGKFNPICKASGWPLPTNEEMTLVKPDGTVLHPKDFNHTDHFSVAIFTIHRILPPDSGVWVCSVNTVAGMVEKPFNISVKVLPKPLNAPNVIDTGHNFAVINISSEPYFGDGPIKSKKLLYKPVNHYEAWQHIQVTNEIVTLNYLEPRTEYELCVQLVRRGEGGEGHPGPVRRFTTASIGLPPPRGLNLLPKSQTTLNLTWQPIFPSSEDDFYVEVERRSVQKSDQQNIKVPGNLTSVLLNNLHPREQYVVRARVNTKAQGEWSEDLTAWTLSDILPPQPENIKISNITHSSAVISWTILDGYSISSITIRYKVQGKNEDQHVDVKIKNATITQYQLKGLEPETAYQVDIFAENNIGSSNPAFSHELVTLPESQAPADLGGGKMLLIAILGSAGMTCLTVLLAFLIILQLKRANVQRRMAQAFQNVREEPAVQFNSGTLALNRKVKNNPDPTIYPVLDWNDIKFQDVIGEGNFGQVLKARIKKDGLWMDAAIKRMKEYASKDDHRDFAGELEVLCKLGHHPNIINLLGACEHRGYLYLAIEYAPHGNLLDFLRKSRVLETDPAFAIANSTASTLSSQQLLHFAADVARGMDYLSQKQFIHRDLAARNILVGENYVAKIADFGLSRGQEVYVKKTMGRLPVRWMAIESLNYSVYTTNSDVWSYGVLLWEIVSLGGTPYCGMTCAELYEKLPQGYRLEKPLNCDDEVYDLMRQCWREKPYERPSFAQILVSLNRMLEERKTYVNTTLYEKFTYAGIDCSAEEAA
Sequence of Snk(h) (Q9NYY3 whole entry): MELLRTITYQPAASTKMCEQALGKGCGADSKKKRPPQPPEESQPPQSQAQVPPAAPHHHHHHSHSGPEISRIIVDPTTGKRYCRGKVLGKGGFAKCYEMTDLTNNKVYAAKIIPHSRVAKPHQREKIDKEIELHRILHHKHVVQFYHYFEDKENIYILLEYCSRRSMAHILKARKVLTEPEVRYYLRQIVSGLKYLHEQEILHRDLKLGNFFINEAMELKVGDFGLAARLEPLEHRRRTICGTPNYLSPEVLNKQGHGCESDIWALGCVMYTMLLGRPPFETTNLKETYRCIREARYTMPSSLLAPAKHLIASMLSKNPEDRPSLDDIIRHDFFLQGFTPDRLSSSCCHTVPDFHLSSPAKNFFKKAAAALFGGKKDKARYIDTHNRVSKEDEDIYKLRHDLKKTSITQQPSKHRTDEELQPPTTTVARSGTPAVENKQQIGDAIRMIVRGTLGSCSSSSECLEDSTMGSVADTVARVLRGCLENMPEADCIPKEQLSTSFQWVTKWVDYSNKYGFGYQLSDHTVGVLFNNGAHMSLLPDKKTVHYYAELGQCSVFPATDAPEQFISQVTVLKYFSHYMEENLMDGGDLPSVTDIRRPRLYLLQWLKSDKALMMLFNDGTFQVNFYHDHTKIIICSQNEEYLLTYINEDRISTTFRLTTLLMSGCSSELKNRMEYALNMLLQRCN
Sequence of MAPK1(h) (P27361 whole entry): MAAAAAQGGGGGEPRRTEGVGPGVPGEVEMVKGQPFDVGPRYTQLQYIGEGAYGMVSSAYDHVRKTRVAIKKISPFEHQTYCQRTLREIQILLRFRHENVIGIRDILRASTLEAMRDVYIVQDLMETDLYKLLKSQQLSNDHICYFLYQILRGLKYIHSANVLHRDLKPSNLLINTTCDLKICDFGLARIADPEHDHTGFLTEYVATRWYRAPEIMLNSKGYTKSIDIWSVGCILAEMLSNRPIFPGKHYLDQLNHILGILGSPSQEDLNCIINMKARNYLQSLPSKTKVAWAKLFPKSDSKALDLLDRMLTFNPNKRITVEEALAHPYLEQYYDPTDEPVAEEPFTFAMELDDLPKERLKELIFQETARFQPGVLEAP
Sequence of MRCKα(h) (Q5VT25 whole entry): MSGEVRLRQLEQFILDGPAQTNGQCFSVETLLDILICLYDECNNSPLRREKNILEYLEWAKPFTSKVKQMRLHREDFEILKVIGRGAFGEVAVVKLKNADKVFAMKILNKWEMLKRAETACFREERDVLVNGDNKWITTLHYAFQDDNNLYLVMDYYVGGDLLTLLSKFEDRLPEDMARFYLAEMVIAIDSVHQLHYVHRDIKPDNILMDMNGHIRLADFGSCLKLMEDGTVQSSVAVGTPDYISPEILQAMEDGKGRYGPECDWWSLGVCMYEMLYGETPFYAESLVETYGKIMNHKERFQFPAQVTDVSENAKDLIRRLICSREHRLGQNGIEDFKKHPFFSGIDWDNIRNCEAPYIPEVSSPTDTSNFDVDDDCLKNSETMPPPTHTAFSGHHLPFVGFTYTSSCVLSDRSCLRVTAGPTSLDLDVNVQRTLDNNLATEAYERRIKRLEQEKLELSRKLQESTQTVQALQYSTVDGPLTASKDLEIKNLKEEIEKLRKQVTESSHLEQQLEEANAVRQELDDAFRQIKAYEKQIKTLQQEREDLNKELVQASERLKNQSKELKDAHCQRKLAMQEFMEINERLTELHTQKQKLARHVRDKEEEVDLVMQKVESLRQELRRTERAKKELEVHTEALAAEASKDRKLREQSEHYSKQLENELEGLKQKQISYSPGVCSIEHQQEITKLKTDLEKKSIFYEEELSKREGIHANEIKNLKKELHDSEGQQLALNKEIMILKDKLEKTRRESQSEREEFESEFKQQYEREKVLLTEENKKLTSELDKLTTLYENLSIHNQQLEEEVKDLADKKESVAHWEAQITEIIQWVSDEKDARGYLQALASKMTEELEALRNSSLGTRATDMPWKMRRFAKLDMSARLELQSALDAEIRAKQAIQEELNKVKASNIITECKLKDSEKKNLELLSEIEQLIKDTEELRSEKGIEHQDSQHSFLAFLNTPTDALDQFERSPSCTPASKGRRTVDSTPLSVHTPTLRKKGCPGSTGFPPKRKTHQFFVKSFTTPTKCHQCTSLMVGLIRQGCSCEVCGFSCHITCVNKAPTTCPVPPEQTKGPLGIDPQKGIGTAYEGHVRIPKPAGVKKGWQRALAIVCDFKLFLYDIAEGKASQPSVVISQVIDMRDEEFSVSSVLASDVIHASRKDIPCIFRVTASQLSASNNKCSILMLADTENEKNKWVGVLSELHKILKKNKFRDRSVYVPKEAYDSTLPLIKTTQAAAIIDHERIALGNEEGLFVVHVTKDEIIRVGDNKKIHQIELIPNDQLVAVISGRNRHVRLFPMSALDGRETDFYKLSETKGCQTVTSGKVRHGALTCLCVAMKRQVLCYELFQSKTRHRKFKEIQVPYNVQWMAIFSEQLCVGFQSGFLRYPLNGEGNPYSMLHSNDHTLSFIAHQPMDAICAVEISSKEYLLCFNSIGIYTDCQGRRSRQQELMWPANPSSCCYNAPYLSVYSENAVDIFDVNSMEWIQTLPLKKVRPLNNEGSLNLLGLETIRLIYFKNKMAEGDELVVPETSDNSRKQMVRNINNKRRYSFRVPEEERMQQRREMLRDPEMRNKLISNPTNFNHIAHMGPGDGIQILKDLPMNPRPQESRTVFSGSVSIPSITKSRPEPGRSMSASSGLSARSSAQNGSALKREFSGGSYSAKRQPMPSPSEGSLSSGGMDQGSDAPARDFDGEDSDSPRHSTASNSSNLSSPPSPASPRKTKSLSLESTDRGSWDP
Sequence of PAK6(h) (Q9NQU5 whole entry): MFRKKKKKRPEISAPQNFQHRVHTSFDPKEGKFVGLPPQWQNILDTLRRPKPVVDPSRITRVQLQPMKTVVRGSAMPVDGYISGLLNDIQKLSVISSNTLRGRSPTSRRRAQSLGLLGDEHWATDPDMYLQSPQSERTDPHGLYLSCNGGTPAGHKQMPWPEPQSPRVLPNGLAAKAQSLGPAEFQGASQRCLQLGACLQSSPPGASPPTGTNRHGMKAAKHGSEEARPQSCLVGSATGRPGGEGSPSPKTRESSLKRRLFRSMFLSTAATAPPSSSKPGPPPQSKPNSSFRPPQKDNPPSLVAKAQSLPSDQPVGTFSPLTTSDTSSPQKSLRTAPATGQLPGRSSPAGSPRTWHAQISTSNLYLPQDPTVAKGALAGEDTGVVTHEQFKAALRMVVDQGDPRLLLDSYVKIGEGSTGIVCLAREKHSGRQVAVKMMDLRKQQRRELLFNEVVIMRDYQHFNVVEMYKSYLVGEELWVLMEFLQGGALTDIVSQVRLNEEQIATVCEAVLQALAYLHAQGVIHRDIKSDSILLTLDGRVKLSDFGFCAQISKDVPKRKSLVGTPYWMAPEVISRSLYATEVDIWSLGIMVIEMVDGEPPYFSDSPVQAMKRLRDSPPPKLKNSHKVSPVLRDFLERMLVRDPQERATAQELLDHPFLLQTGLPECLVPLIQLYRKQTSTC
Sequence of CK1γ2(h) (P78368 whole entry): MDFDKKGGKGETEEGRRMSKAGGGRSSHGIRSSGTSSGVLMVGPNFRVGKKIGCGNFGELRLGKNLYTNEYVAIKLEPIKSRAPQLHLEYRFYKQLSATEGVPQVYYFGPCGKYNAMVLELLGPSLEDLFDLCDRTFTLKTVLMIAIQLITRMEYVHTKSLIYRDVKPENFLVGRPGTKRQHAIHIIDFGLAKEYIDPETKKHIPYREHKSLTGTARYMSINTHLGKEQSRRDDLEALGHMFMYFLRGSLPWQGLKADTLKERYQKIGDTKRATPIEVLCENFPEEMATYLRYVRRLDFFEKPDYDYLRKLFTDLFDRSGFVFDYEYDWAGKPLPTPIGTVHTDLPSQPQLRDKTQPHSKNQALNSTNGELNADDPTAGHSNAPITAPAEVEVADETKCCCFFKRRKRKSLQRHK

As for FAKLAARLYRKALARQLGVAA [MMI-0300], the results for the “% activity” value with CK1γ2(h) and with EGFR(T790M)(h) were 123% and 100%, respectively.

As for YARAAARQARAKALNRQLGVA [MMI-0200], the “% activity” value in the assay with CK1γ1(h) amounted to 98%; with CLK2(h), 97%; with IGF-1R(h), 49%; with MAPK1(h), 97%; with Plk1(h) it was 128%; with Tie2(R849W)(h), 89%.

As for KAFAKLAARLYRKALARQLGVAA [MMI-0400], the “% activity” value with IGF-1R(h) turned out to be 90%; in the assay with MAPK1(h), 100%; with MRCKα(h) it was 97%; with PAK6(h), 100%; in the assay with Snk(h), 131%; in the assay with Tie2(R849W)(h) it was 108%.

Consider HRRIKAWLKKIKALARQLGVAA [MMI-0500], for which the “% activity” value stood at 19% with c-RAF(h), 70% with EGFR(T790M)(h), 5% in the assay with MRCKα(h) and 122% with Snk(h).
